According to patent US20220204569:

Assays:
[1] = tested on: ChrocodiLE (TAL-HT x15 GFP fusion) (Xanthomonas (engineered)); settings: FRAP T1/2 68.53 ± 8.45 s (n = 4), live HeLa; nuclear CV 1.1
[2] = tested on: GFP fusion, 0 TAL-repeats (control) (Xanthomonas (engineered)); settings: FRAP T1/2 1.87 ± 0.28 s (n = 3), live HeLa; nuclear CV 0.53
[3] = tested on: TAL-HT x1 GFP fusion (Xanthomonas (engineered)); settings: FRAP T1/2 2.09 ± 0.40 s (n = 5), live HeLa; nuclear CV 0.45, uniform localization as control
[4] = tested on: TAL-HT x12 GFP fusion (Xanthomonas (engineered)); settings: FRAP T1/2 67.84 ± 8.43 s (n = 4), live HeLa; nuclear CV 1.1
[5] = tested on: TAL-HT x2 GFP fusion (Xanthomonas (engineered)); settings: FRAP T1/2 2.91 ± 0.22 s (n = 5), live HeLa; nuclear CV 0.40, uniform localization as control
[6] = tested on: TAL-HT x3 GFP fusion (Xanthomonas (engineered)); settings: FRAP T1/2 6.30 ± 1.86 s (n = 5), live HeLa; nuclear CV 1.2
[7] = tested on: TAL-HT x8 GFP fusion (Xanthomonas (engineered)); settings: FRAP T1/2 30.97 ± 6.79 s (n = 5), live HeLa; nuclear CV 0.87

HeLa nuclear genomic DNA (chromatin)
FRAP recovery half-time [1]: 68.5 s
FRAP recovery half-time [2]: 1.87 s
FRAP recovery half-time [3]: 2.09 s
FRAP recovery half-time [4]: 67.8 s
FRAP recovery half-time [5]: 2.91 s
FRAP recovery half-time [6]: 6.3 s
FRAP recovery half-time [7]: 31 s
